Assay results from the supplement of paper PMC12042874.
± gives the uncertainty stated by the source.

Assay: amyloid nucleation score (Sup35N fusion, yeast selection) (log enrichment); library NNK1; higher = more nucleation; inactive = no reads after selection
Summary of the method: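 Output and input plasmid inserts were sequenced by Illumina after psi-negative yeast carrying Sup35N fused to peptides of 20 random codons had been induced 24 hours with 100 μM copper sulfate and grown 7 days at 30°C on medium lacking adenine and uracil. The nucleation score is the DiMSum log enrichment of output over input reads, centred on the mode score of non-aggregating sequences. Sequences with under 100 input reads were excluded.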

| Substance | amyloid nucleation score |
| --- | --- |
| MRVTFHYFS | -0.434 ± 1.7 |
| MRVWKSILFDRSFFVFGLWR | -0.543 ± 0.6 |
| MSDSRIVTVIVRRQPVSQRS | 1.33 ± 0.84 |
| MSFTSAY | -0.238 ± 0.56 |
| MSGWG | 0.167 ± 0.27 |
| MSKINFFVNMAGL | 5.19 ± 0.062 |
| MSLDGD | 0.868 ± 0.29 |
| MSLYTDNWGNKGRTSLNYSS | 0.455 ± 0.51 |
| MSLYYPSFDQPITKRVRLFF | -0.82 ± 1.4 |
| MSMMLTRIAHTLSESWRTHW | -0.09 ± 0.97 |
| MSQAALLVLGNRFGNNDIVG | -0.078 ± 0.44 |
| MSQDR | -0.061 ± 0.94 |
| MSSRQVPGFLMIGSLFARCI | -0.639 ± 0.55 |
| MSSVLFYYGFNTFEYSDMYM | -0.15 ± 0.33 |
| MSSVNWYANDLLSVLGIGSR | -0.202 ± 1.2 |
| MSYMCLNRYILVGYCWVQTT | 0.312 ± 0.66 |
| MTRVNLKDKHNVRILSFN | inactive |
| MTVSRNFDYAKLCEWRRVNR | -0.371 ± 0.37 |
| MVCLVVSFGQCASTVFLFHL | 1.83 ± 0.49 |
| MVCTYNVRCIEMETRYPRSR | 0.791 ± 0.97 |
| MVDPRVTS | -0.86 ± 1.1 |
| MVIHP | 3.57 ± 0.087 |

| Substance | amyloid nucleation score |
| --- | --- |
| MVIPFFLSSLLSL | -0.835 ± 0.7 |
| MVKRRV | -0.232 ± 1.2 |
| MVSDMLVKATVHPMYFMTLW | -0.34 ± 0.32 |
| MVTDPWISTLSSFHLWGGFM | -0.318 ± 0.93 |
| MVTEDEERMANLSWHESGAY | -1.07 ± 0.74 |
| MVTGTSHPLQYMLSGSSTKY | -0.436 ± 0.45 |
| MVVVIIYL | 1.53 ± 0.35 |
| MVYLGECCITFYSFNSYRVM | 4.55 ± 0.053 |
| MWGARLRVWPGYERLSAFNH | -0.552 ± 0.44 |
| MWGPHCTRSTTTLVPRARKG | 0.468 ± 0.46 |
| MWSGDDCSFNDFCYVCDFCK | -0.1 ± 0.32 |
| MYCFLAKDLRVTEKFWRRGS | -0.448 ± 0.64 |
| MYINGWYWTDGFIVNYQWMG | 0.626 ± 0.55 |
| MYRMFRSFKFEWYCELWVLS | -0.125 ± 0.5 |
| NADCVTMVYSKLVWLPVEDT | 0.458 ± 0.57 |
| NAFNHFYPTQPFLVQDCWRR | 0.605 ± 0.72 |
| NALILRGLVCLSWKLELTHF | -0.866 ± 1.9 |
| NARWV | 0.613 ± 0.38 |
| NARYYYQSAIADVI | 0.64 ± 0.29 |
| NCECVFIPMKEPGFYR | -0.357 ± 0.63 |
| NCIGMFAIDLTKDQFRGDFR | 2.73 ± 0.31 |
| NCLCIMSPCLLPCWEWVSYR | 5.834 ± 0.055 |

| Substance | amyloid nucleation score |
| --- | --- |
| NCLNAMVWSLLMLTDHLAPQ | -0.157 ± 0.72 |
| NCRFRVVVRKSGTLLPVWVP | 0.542 ± 1 |
| NCVTELYDLRGILVRNLCSG | -0.044 ± 0.21 |
| NCVTTNIGFN | 0.124 ± 0.9 |
| NCYSF | 0.055 ± 0.29 |
| NDEQAVQFNIGETGVSYCFL | 0.162 ± 0.77 |
| NDFLNSFLCPYYIIPDTGRI | -1.04 ± 0.44 |
| NDFYVLNASFSSRHSYAIRH | 1.1 ± 0.3 |
| NDHNNLWVNFVGT | 0.575 ± 0.6 |
| NDNSVTILVCARVSTNGIFD | 3.38 ± 0.11 |
| NDVRYLLDMDLLASSADYFM | -0.732 ± 1.1 |
| NEFKFKVRTKEFRFEVCLKY | inactive |
| NELMSYVWQDKPRKYRYLF | 1.2 ± 0.13 |
| NESGSARFSPVDSYGFGSGC | -0.894 ± 0.75 |
| NEWVCLS | -0.179 ± 0.36 |
| NFACVFTSTSRMCRH | 3.85 ± 0.1 |
| NFAYGVNYLSAVKGCFTFAR | -0.206 ± 1.5 |
| NFDNYVLLPLALTC | inactive |
| NFGVSSNLCGGIWIYW | 4.74 ± 0.074 |
| NFIFVR | 0.706 ± 0.53 |
| NFIQID | inactive |
| NFLIDTYCVNSFNVTL | 2.67 ± 0.17 |

| Substance | amyloid nucleation score |
| --- | --- |
| NGFNKSRAQWFGSVSCSPEG | 0.174 ± 1.5 |
| NGFPTNELLFPALKVCNSRV | 0.945 ± 1.1 |
| NGIMKIEKYG | 0.312 ± 0.79 |
| NGKDFWMSGRYAYVSMHFDR | 1.13 ± 0.31 |
| NGLCLDDIVRLFVIITSVGP | 0.821 ± 1.1 |
| NGRCKYLRQNIFSVLLIMRR | 0.324 ± 1 |
| NHFFCGLGNYLSAVFIVIRK | -0.159 ± 1.4 |
| NHLVG | 0.526 ± 1.4 |
| NHMFPMVVTYLWSCFIIGSV | 2.42 ± 0.37 |
| NIGVCQIFLDTGMGISVFLN | 6.06 ± 0.08 |
| NIGYSLAVMSAMMLLHFNFG | 2.95 ± 0.082 |
| NIINLHYKYLVADVWGLKMF | -0.008 ± 0.93 |
| NIKEKG | 0.635 ± 0.44 |
| NILKNTLAFSVYLISLPLHV | 1.82 ± 0.1 |
| NINPHLLTISFHWLRPQLAP | -0.745 ± 1.7 |
| NISCDRGMLG | inactive |
| NKFGQSAGYLSTFACAVGIG | 0.595 ± 0.39 |
| NKGALRLRFYGIFEVECVVE | 1.09 ± 0.4 |
| NKNMSNKFVSIMQKFFSIDG | 2.72 ± 0.13 |
| NKNSGSRHHHVTYQLTPGER | inactive |
